Experimental data: the DeepSol protein solubility set

Experiment: soluble on expression in E. coli; label from the status in PepcDB or PDB records
For “GNSKKHNLILIGAPGSGKGTQCEFIKKEYGLAHLSTGDMLREAIKNGTKIGLEAKSIIESGNFVGDEIVLGLVKEKFDLGVCVNGFVLDGFPRTIPQAEGLAKILSEIGDSLTSVIYFEIDDSEIIERISGRCTHPASGRIYHVKYNPPKQPGIDDVTGEPLVWRDDDNAEAVKVRLDVFHKQTAPLVKFYEDLGILKRVNAKLPPKEVTEQIKKIL”, the “soluble on expression in E. coli” value was “soluble”.
For “GNSKSGALSKEILEELQLNTKFTEEELSSWYQSFLKECPSGRITRQEFQTIYSKFFPEADPKAYAQHVFRSFDANSDGTLDFKEYVIALHMTSAGKTNQKLEWAFSLYDVDGNGTISKNEVLEIVTAIFKMISPEDTKHLPEDENTPEKRAEKIWGFFGKKDDDKLTEKEFIEGTLANKEILRLIQFEPQKVKEKLKEKKL”, the “soluble on expression in E. coli” value was “soluble”.
With “GPGSMAAMASRALISSPSHLLQKFDSCRTIFMCCDIQEKLRNRIPNFQAAVDVSNSMATIHNTLTPKHSTFVVTEQYPKGVGHVAKDITLPEGTPVIEKLQPSMLVPEMMPYIDGDAARGILPVQQAVLWGHETHVCVLQTADELLSRNIRVAVLVDGCASQQQLDHDVAIQEMAGWENLTLTTTISVLLQLSRGDRWIRGALMKVVKPKWADPSRFPSLPADGERPKA” the “soluble on expression in E. coli” value was “soluble”.
In the case of “GPGSMAKHYKAIFAMSYEAELYAHLQASQRFNAGADAAVVLHADSDEAMRRHLGISIDPINGTNCCVGGVWQAPMTLVGIALDGVPIAGVMNRIFDYPLTCTYGPAATEPQEKACVPGLAVVLNTPTPASPFVVFDGGLVPAPGQMEQQLECTCETPLAVCRSSTTKEVFLQRLLTQLEPCNAVYSRGAGYKQYHLLKKMLTGRHVAHEAITPADIFVCPPGTIEKWDCCVVHAFLYALGGEIFDQNGVPIRYPLVGTYGAATTSLSEIAALTDGLVAVTPYAMHEVARRLGWTLTLAP”, the “soluble on expression in E. coli” value is reported as “not soluble”.
With “GPGSMALVHTTYPQCLSLVEADTAEAEVQQALEDGANTLYFSHHFNYTDVPPSIAALREQLEVLHIDNNYPFTTISPRVTALTNLRWLNASYCSLRSVDSSISRLSKLERLTLNNNMLTWLPLDVWQLKALEELHIDNNQLNVLPGCLLFLPRLRVLTLENNPLYTHEEVNGAAAATYIPVQCSVDCSACCIRSRNYKVFVTFHTIVGHSDVPFVHVVCSDECAVHVRSRLEAYDRAHANQP” the “soluble on expression in E. coli” value was “soluble”.
With “GPGSMAMRDVIGDPDLLLRKTPANPKYEHVKPVVETGMTAELARFMKNTGAALYRVSGEPFMRIRTRLIGDFVQKQQSQSGEIKDGGFAHPMDEYRAPDTQLPKEYLILDVRSEEEYAACHIKGALHYPKRRMVHAINPLLPEMFNFKNKENKLIVLYDLEEEMTIAQGIGQNVFEKGIDNLAVMTGGLREFVQDYADCIVGESPVPIVPRDTRLLKRAEAVSAARSETQRSAFSHKPKSLSNSLAKPRPR” the “soluble on expression in E. coli” value was “soluble”.
In the case of “GPGSMDRGYPRRREGGASFGGGGFGGVGGFSGGSGGPPAGGPRRRFRSDFDPEEYAPRRKLHGQRPVDFYSPAIRHVLTRLVPRSTPYSYHVAPHEYYTKDLVTASVTNYNASTALCTQWVNTSYHPDSKGGRIRTPLYALQWSPSGRRLLCSTGRGEFLLFNGQSFGVEVKTVAHEDNRPCRAIAWGRRHDLILSGDDAGKLKMWMPNFVFMSEVDTSHRAVREISWAPLELKFCTAGQDGSAKVWDTNTVGAHTATAGASDGNQAVLEEVKLEGHGGDVTTAHWHPYRALIATGSQDTQCRLWDPRTASRGSIAALHGHSQALTCVRWHPDGRTLLSASKDGTVKLWDIRKTQPEVKRFTGHTDAVDKVDWHPTVSDLFASTGADGSVMYWMVAEGDGTMTHGVEEVVHDAAMIEAAHEKFRDKPNPVHCVAWSPLGNILASSGHEVKYWTRNKPGALEEKERGVESDILDEQGHVMV”, the “soluble on expression in E. coli” value is reported as “not soluble”.
For “GPGSMEEQDQRKPNGGNNGLPVPPSTTETGQGPLQDILGRTPNCQYVKKRLLGQGSFGSAWRVEESATGNVFAAKVMDLNNMSEKDRGFVTNEVKCLSRCCNPHVVRCENAIEREGQLLIVMEYADGGDLYKQIKARVREMKFFREHEVVFIFLQLCLALDHIHSNKMMHRDLKTANILLTTTGLVKLGDFGFSRQYEDSLSNAVGSTFCGTPYYLSPELWHRQPYSKKSEMWALGVVLYEVMALRRPFTGKNMDELITNICHGRCSDLPSSYSASLRDVCNRLLSVDPNTRPTIHELFHEPFIRSNLETLKRSVEKHNRIPADVREAIARCITQSLNTEEPPAHLEEPEPLIGTVKRHTALRGWQKCLLSFDEKQISIRDPSGVDPEEVVPVATLTSVCPIDVMMAGEEFVFAMKNQAGKAFWFMAPSQRAYEQWLTTLQEAAP”, the “soluble on expression in E. coli” value was “soluble”.
With “GPGSMEQGAFNDVAKKALEFRNRYYKMLDDPQDRLNVAGLYAPDVPMVCEWNGHPLSTVDDVRNYISALPKTSHQVDMVDAQPLPDNQDGDSFLLTVHGIVTYNDEHRREFYQRMVIRRFEQRYYILNDYYRWLSERSQ” the “soluble on expression in E. coli” value was “soluble”.
In the case of “GPGSMESSMSTGDLLTPGALWQDDTKVFVCSGRRCGRRFNRLFCPKHRCRWCGRVYCDACAPKQTVYKRQLLRKCNRCRLPVVFRYSWNERTRAMDCTPFECIISYLTPRSITALLQSCYTMMSEFPVCGYPFYDSIQQRFPSFYPGAQIGRGTFGTVFKCEDRSAADHKRAILKCISKATNLTYTRWMGALTELRILESVNHPNVAHLLGAFQTREDLVIVMEAGEGGTARRAAAGVREYGQAAEEAFTANIIEGVAAGLNYLYREKHIIHRDIKLDNIVLSADYSTPMIIDFGLAEFVVNEEEQWYVVGGTRNYAAPESIAAVANGHVDMKEPGITMHKGDLFSLGVVAYYLLSGHRPFRSRSFDKMHEEMRRGVACTGPLWDGVSSDARELVQALLSYDPAQRPDYAAIKENPFITARTAGVKSIQMQRNARLLLDEEETHAEWVTLEPSDLREAADEGESEVLLPLSTPQRWYHAYLPRFSLLHL”, the “soluble on expression in E. coli” value is reported as “not soluble”.
For “GPGSMGEGRIRCYYEVLEVERKATYDEIRTAYKKKSLQYHPDKNYGNQEEAAMRFKEVQNAYSILSDADERAWYDSHREAILRGGDGTGDLDELNLYEYFTAGCFDGFDDGESGFYTVYRKVFDILIEEESDYDSRAKLWPGFGTSTSDWADVQKFYGYWRNFSTYKTFTWKDEYKVNEMEDRYSRRMAGRINSKARDGAKKEYVRTVQSLAQFVYRRDPRVKAELERQEKEDQAKREERERQEIERLKRRREANERVWAEAAEREAREEAERAARGEAMDGSILEMLYEKERQTKEMMRGSGGVGAHTAGFAMLGGDDDEAVTVFNCPACKKQFKSENQYKEHVRSNKHKTKLKQLAAKGTDVAALMGEKVEGGSGGTEE”, the “soluble on expression in E. coli” value was “soluble”.
For “GPGSMGIPLPKPVMTQLQERYGNTIFRCGSNCVNGYRETMEDAHLTYLTDSWGFFGVFDGHVNDQCSQYLERAWRSAIEKESIPMTDERMKELALQIDQEWMDSGREGGSTGTFFVALKEGNKVHLQVGNVGDSRVVACIDGVCVPLTEDHKPNNEGERQRIENCAGRVENNRVDGSLAVSRAFGDREYKLGSGSQLEQKVIALADVQHKDLTFNSNDFVLLCCDGVFEGNFPNEEVVAYVKQQLETCNDLAEVAGSVCEEAIERGSRDNISCMIVQFKDGSDYAAAPHTTVVPGPFSAPRNSGFRKAYESMADKGNTTVGALLEKRYDTLKAAEALTPEETEELSQFENGPEAKLTGAERQKWFSNYFQKLCEAASNGPSDQMERLQSLQQQAGIPLSILLSLMGEQTQ”, the “soluble on expression in E. coli” value was “soluble”.
For “GPGSMIEADVIRLNMEVEAAAARNADLSREVARLREELANSGLHNMDRTLVITEGTQTDSGMLREVALDLDDILFEVSELLFRLYPASSLDLSVRRDAQSSQLNDLSQRCLREVRSLKAAWEMKLDGYNQFISNIQRSQVDYHRSLDSKECQLRRKQQECDVLVGENARLSTLCSELESQLKTTQEAATRAEEQVGRLLQQTADLEAERRRLLDREAAMANTLVALRAECAFNPWSSLVGVKEAATTIESNGQLPSVREQAVAVTKAHIKPPGAVSASDVAMAFQGLDLDGQLPHMCVEPESVVDYYCKVKHSSPTRSLM”, the “soluble on expression in E. coli” value was “soluble”.
With “GPGSMIGAPWPPEAVFGNTVDRVASPAPVPERKISIADQLHLPLSRFVEKMSWGEKRRVQILHGMLYPATVYLLDECSTDIDVAERRTVLELVRQECEAKDGCCVYATHIFDGIEGWATHLLLMEGGRVVDFKAVEKLTLPLEDYALQFMSKRAHAARGVDGVAAASLSHGSSAAISTTS” the “soluble on expression in E. coli” value was “soluble”.
For “GPGSMINLPDMWTAEQRRQHVAEMYRNKGLICPDYFLKNECPRSSSCSYIHIRNGETRKVPLSVCHFYAKRACLRDKCVFFHGTQAQLDQLHAMGAQTYRPQDYMAFAIPPPELLGTDQNVAPPVVTMPMPVPAPLVNNTMPISKPATNSPLLLLPIDASAATPFSMYWSSSPCQHRSPLSPAPIPGLAEPRPPAVSHPYTVFSFFQ”, the “soluble on expression in E. coli” value was “not soluble”.
For “GPGSMLDRLSCLGPRTKRWLHNNLRGRYVRVCTREQHSRKQLTPAGGPQGSALRPQLFLHCVDDLLRRMDNIYSASALMYADDLTVVASGAGTHACAAAMPPALSLITAWAAEHNHKINVDKSEAALFHISSHTRSDDEMVNLHLGNGKLRIQSRPVRLLDTTMDQLLNFDYARFHRFK”, the “soluble on expression in E. coli” value was “not soluble”.
With “GPGSMLKRSVSAAARKAGADTLAAAPAAGQQPPSNPLLPYALRRAAACEMLYGGSRVQYLVQPPFTLHKIRSENLPPPSLYAERHDLGLEMQLPRDMHVYNSINMAIQRQVGGDSSTLDGEQQQLQGGHADGFDMGAFFTEQHHPERHHNSSLPYAKHDTNNVLAMRLFPVNVGVRARTEAIRIRTDDCLQRLRDADLCAKMRLPLEHPLPLSRRSQYAAIHRVRQERCYDAPTEAAGERAAAAAEEASRTAHLRGAAAHPPPSELSIVTRPVDRLGSHSGSSAAACTADADHLSFPVHPFAAAAVSSGCHSARSGSAARLASQRWLPLQTLKPMGHNWSAATRSSGVRGPHMQLMQERLDQKGFGWKRKSRSLWQQDVATAGFRPHRYF” the “soluble on expression in E. coli” value was “soluble”.
In the case of “GPGSMLRRCAPLLIGVEGDTFVSAIKDKQYLAHRLAILGKEDPNFKAQCMSDDDIKRFTTSLGSAESLFNKQAGAIPTNVVDEETGRVIGSTQPDPTRYGDWEVNGRCYDF”, the “soluble on expression in E. coli” value is reported as “soluble”.
With “GPGSMMEGSPSEVHVHSSMAMGLQERPPLELVSHASEVSCLTINDNYDMWNASMYPNLNSGFDASLTSATTPDTTVARFAPAMRPHRKQQLSHQMMPLPARGEQTMSDIDSEVVLWDRPPTQDVLGSPAASGL” the “soluble on expression in E. coli” value was “soluble”.
With “GPGSMNCFGVRNWWRNNLPELQLLNPFCSFTIQELSFGEPHMYINYTPTDQRMIRLAGATEDECEDIMEACITYGMNHAIIERPRTDDGGDLINQPAITSFGYTESFMSKLEVSPPADIGQRTPEGVDDPGQKPRVYPRNVGFKIMP” the “soluble on expression in E. coli” value was “not soluble”.
In the case of “GPGSMPAAPLPGEVAKFCSPLYMHKRILRAAAPKPPTVFTAKDNSKTAFHVVTQRPGFATTPYTVSRWYLKEKVHSSNRNRLEGLYECVLCASCTGSCPQYWWNRELFLGPAVLLQSYRWLIEPLDRDFDSRVKMFEHGPLVNFCHNIFNCSITCPKFLNPGMASKEIKRLSSPATLRVGPPLEDAKVASKY”, the “soluble on expression in E. coli” value is reported as “not soluble”.
For “GPGSMPSLANGLRCPDALITRTLNPLLNGPKFAVIYCGNHQYKVAVGDVIAVQRLRVEIGSHIALKKVLMVGGPRFTAIGRPLLEGVRVTAQVEEQKRMRNVVSLFATPGRRHVRWVDAPHAATVIRICEIFYSPNVVGELDKYKGELLETFTPGQHTNPVYPVDDGYDVFRKKDKEAMENATTFLDLLGGV”, the “soluble on expression in E. coli” value was “not soluble”.
